Biological target: Synechococcus sp. PCC 7002 Type 2 β‐McdB (Synechococcus sp. PCC 7002)
Experiment: SEC-MALS

stoichiometry N: 2
Substance: Synechococcus sp. PCC 7002 Type 2 β‐McdB (natural protein)

Source: publication PMC8359340
